Test [1] has as its target T1, human C4b (human) (UniProt P0C0L4).
T1 sequence: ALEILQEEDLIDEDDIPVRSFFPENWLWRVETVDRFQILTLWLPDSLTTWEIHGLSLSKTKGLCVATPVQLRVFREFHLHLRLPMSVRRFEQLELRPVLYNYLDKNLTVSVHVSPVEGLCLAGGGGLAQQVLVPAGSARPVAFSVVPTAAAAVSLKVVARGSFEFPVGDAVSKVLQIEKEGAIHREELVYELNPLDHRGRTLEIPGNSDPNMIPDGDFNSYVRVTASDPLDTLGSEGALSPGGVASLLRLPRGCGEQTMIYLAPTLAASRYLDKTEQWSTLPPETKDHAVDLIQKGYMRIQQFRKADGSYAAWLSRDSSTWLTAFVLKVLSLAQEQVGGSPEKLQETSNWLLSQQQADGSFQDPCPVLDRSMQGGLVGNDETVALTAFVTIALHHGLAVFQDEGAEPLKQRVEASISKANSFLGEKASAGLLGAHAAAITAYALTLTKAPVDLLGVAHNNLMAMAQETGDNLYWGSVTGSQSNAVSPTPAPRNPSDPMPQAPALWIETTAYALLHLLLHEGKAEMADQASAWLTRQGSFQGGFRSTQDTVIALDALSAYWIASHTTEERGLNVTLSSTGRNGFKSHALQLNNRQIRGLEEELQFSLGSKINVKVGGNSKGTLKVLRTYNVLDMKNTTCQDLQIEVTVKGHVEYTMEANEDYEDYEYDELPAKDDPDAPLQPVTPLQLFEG

In test [2] the target is soluble human C3b (human) (UniProt P01024).
Test [3] has as its target T1, human C4b (human). This is another data set of the same source.
Test [4] has as its target T2, human C4b (human) (UniProt P0C0L5).
T2 sequence: T1 sequence with A151T, D317G, P364L, C365S, L368I, D369H, N420S, V451A, L454R, S530A

Positions count from the first letter of the chain named. Values joined by “and” are separate entries in the source; they are usually repeats but may differ in a detail not shown here. Equal entries are not always repeated. A value given as a limit tells only on which side of the number the result lay.

In test [1], “CFI-HSA variant E416A; E457G; E461Q; F464Y; N531G (enzyme)” had a C4b Screen Ref Fold (fold of CFI-HSA wild type) of 4.74. In addition, the iC3b Screen Ref Fold (fold of CFI-HSA wild type) in test [2] turned out to be 1.79. This substance also returned a C4c EC50 (nM) in test [3] of 12 nM.
For the substance “CFI-HSA variant E457G; E461Q; E530F; N531G; P558S (enzyme)”, the C4b Screen Ref Fold (fold of CFI-HSA wild type) in test [1] is 4.57 and 4.37. The iC3b Screen Ref Fold (fold of CFI-HSA wild type) in test [2] is 1.37 and 1.5. The same substance returned a C4c EC50 (nM) in test [3] of 17.8 nM.
Regarding “CFI-HSA variant E457G; E461Q; F464Y; E530Y; N531G; P558S (enzyme)”, the C4b Screen Ref Fold (fold of CFI-HSA wild type) in test [1] was 4.03. The iC3b Screen Ref Fold (fold of CFI-HSA wild type) in test [2] was 2.44. In test [3], the C4c EC50 (nM) turned out to be 32.4 nM.
On to “CFI-HSA variant E457G; E461Q; F464Y; N531G; R557K (enzyme)”, for which, in test [1], the C4b Screen Ref Fold (fold of CFI-HSA wild type) amounted to 4.54. In test [2], the iC3b Screen Ref Fold (fold of CFI-HSA wild type) came out at 2.17. Besides, in test [3], the C4c EC50 (nM) stood at 10.6 nM.
As to “CFI-HSA variant E457G; E461Q; K504H; N531G (enzyme)”, in test [1], the C4b Screen Ref Fold (fold of CFI-HSA wild type) was 3.91. Besides, the iC3b Screen Ref Fold (fold of CFI-HSA wild type) in test [2] was 1.2. Further, the C4c EC50 (nM) in test [3] came to 39 nM.
“CFI-HSA variant E457G; E461Q; R462K; F464Y; E530Y; N531G; P558S (enzyme)”: in test [1], the C4b Screen Ref Fold (fold of CFI-HSA wild type) amounted to 4.51. In addition, in test [2], the iC3b Screen Ref Fold (fold of CFI-HSA wild type) is 2.69. Further, the C4c EC50 (nM) in test [3] amounted to 30 nM.
The corresponding values for “CFI-HSA variant E457G; E461Q; R462K; F464Y; K504H; N531G (enzyme)” are 4.01, 2 and 51.7 nM.
The substance “CFI-HSA variant E457G; E461Q; R462K; F464Y; N531G; R557K (enzyme)” had a C4b Screen Ref Fold (fold of CFI-HSA wild type) in test [1] of 4.47. In addition, the iC3b Screen Ref Fold (fold of CFI-HSA wild type) in test [2] amounted to 1.49. The substance also gave a C4c EC50 (nM) in test [3] of 12.4 nM.
For the substance CFI-HSA variant E457P (enzyme), in test [1], the C4b Screen Ref Fold (fold of reference) was found to be 0.01. Also, the iC3b Screen Ref Fold (fold of reference) in test [2] came out at 0.07. The substance also had a C4c EC50 (nM) in test [3] of over 1000 nM.
As for CFI-HSA variant E461T (enzyme), the C4b Screen Ref Fold (fold of reference) in test [1] is 3.24. For the same substance, in test [2], the iC3b Screen Ref Fold (fold of reference) was 1.53. The substance further came in with a C4c EC50 (nM) in test [3] of 125 nM.
With CFI-HSA variant G406D; N531G (enzyme), the C4b Screen Ref Fold (fold of reference) in test [1] was found to be 6.15. Further, the iC3b Screen Ref Fold (fold of reference) in test [2] was 0.83. Further, in test [3], the C4c EC50 came to 124 nM.
Take “CFI-HSA variant Y408L; E457G; N531G; P558S (enzyme)”: in test [2], the iC3b Screen Ref Fold (fold of CFI-HSA wild type) was 0.86. In test [4], the C4b Screen Ref Fold (fold of CFI-HSA wild type) was determined as 5.27. In addition, the C4c EC50 in test [3] was determined as 26.6 nM.
In the same order, the values of “CFI-HSA variant Y408L; E457G; P558S (enzyme)” are 0.97, 4.59 and 67.3 nM.
In the case of “CFI-HSA variant Y408L; N531G; D425K (enzyme)”, the iC3b Screen Ref Fold (fold of CFI-HSA wild type) in test [2] is 1.43. Also, in test [4], the C4b Screen Ref Fold (fold of CFI-HSA wild type) turned out to be 4.99. In test [3], this substance showed a C4c EC50 of 50.1 nM.
On to “CFI-HSA variant Y408L; N531G; D425R; E416A (enzyme)”, for which, in test [2], the iC3b Screen Ref Fold (fold of CFI-HSA wild type) came out at 2.15. This substance returned a C4b Screen Ref Fold (fold of CFI-HSA wild type) in test [4] of 1.41. Further, the C4c EC50 (nM) in test [3] came to 60.6 nM.
As to “CFI-HSA variant Y408L; N531G; E457G (enzyme)”, the iC3b Screen Ref Fold (fold vs CFI-HSA wild type) in test [2] came out at 0.63. The C4b Screen Ref Fold (fold vs CFI-HSA wild type) in test [4] was 6.16. This substance also had a C4c EC50 (nM) in test [3] of 94.4 nM.
In the case of “CFI-HSA variant Y408L; N531G; E457G; E461Q (enzyme)”, the iC3b Screen Ref Fold (fold vs CFI-HSA wild type) in test [2] came to 0.39. For the same substance, the C4b Screen Ref Fold (fold vs CFI-HSA wild type) in test [4] was determined as 4.63. Further, in test [3], the C4c EC50 (nM) came to 84.8 nM.
The corresponding values for “CFI-HSA variant Y408L; N531G; E457G; E461Q; F464Y (enzyme)” are 0.51, 6.12 and 79.9 nM.
The corresponding values for “CFI-HSA variant Y408L; N531G; E457G; E461Q; R462K (enzyme)” are 0.64, 6.07 and 60 nM.
Take “CFI-HSA variant Y408L; N531G; E457G; E461Q; R462K; F464Y (enzyme)”: the iC3b Screen Ref Fold (fold vs CFI-HSA wild type) in test [2] is 0.46. Also, the C4b Screen Ref Fold (fold vs CFI-HSA wild type) in test [4] came to 5.37. Further, in test [3], the C4c EC50 (nM) amounted to 82.1 nM.
In the same order, the values of “CFI-HSA variant Y408L; N531G; E457G; R462K; F464Y (enzyme)” are 0.84, 6.16 and 45.8 nM.
For the substance “CFI-HSA variant Y408L; N531G; E461Q (enzyme)”, in test [2], the iC3b Screen Ref Fold (fold vs CFI-HSA wild type) amounted to 1.21. Also, the C4b Screen Ref Fold (fold vs CFI-HSA wild type) in test [4] is 6.68. Moreover, in test [3], the C4c EC50 (nM) was 51.5 nM.
In the same order, the values of “CFI-HSA variant Y408L; N531G; E461Q; R462K; F464Y (enzyme)” are 0.92, 5.97 and 82.7 nM.
Take “CFI-HSA variant Y408L; N531G; K534Q (enzyme)”: the iC3b Screen Ref Fold (fold of CFI-HSA wild type) in test [2] stood at 1.03. In addition, in test [4], the C4b Screen Ref Fold (fold of CFI-HSA wild type) is 5.13. This substance also returned a C4c EC50 in test [3] of 64.3 nM.
In the same order, the values of “CFI-HSA variant Y408L; N531G; N422K (enzyme)” are 1.94, 3.78 and 83.7 nM.
Regarding “CFI-HSA variant Y408L; N531G; P535A (enzyme)”, the iC3b Screen Ref Fold (fold vs CFI-HSA wild type) in test [2] was found to be 1.02. The C4b Screen Ref Fold (fold vs CFI-HSA wild type) in test [4] worked out at 5.22. For the same substance, in test [3], the C4c EC50 (nM) came out at 118 nM.
As to “CFI-HSA variant Y408L; N531G; P535G; D425K (enzyme)”, the iC3b Screen Ref Fold (fold of CFI-HSA wild type) in test [2] came to 1.38. Moreover, the C4b Screen Ref Fold (fold of CFI-HSA wild type) in test [4] worked out at 2.94. Further, the C4c EC50 in test [3] came to 65.4 nM.
The corresponding values for “CFI-HSA variant Y408L; N531G; P558S (enzyme)” are 1.05, 5.11 and 77.5 nM.
With CFI-HSA variant Y408P (enzyme), the iC3b Screen Ref Fold (fold vs CFI-HSA wild type) in test [2] was 0.02. For the same substance, the C4b Screen Ref Fold (fold vs CFI-HSA wild type) in test [4] is -0.01. Besides, in test [3], the C4c EC50 (nM) is 338 nM.
CFI-HSA variant Y553H (enzyme): the iC3b Screen Ref Fold (fold of CFI-HSA wild type) in test [2] was determined as 0.52. Further, in test [4], the C4b Screen Ref Fold (fold of CFI-HSA wild type) was 4.13. In test [3], this substance returned a C4c EC50 of 85.5 nM and a C4c EC50 (nM) of 166 nM.
Regarding CFI-HSA variant Y553H; P558S (enzyme), the iC3b Screen Ref Fold (fold of CFI-HSA wild type) in test [2] was 0.63. In test [4], this substance had a C4b Screen Ref Fold (fold of CFI-HSA wild type) of 2.14. Moreover, in test [3], the C4c EC50 amounted to 122 nM.
With “WT; GGSSGG (SEQ ID NO: 6); CR1(ccp15-17); GGSSGG (SEQ ID NO: 6); fH(ccp1-4) (enzyme)”, the iC3b Screen Ref Fold (fold vs CFI-HSA wild type) in test [2] turned out to be 0.08. In test [4], the C4b Screen Ref Fold (fold vs CFI-HSA wild type) turned out to be 2.96. In addition, the C4c EC50 (nM) in test [3] was 60.3 nM.

Values taken from patent US20230038638A1, “COMPLEMENT FACTOR I-RELATED COMPOSITIONS AND METHODS” (published 2023).
